The assay deals with BST4-mScarlet-I (Chlamydomonas reinhardtii). Nature of the assay: Slimfield microscopy with single particle tracking and molecular counting.

The term stoichiometry N denotes the number of molecules, sites or subunits per partner or assembly.

BST4-mScarlet-I (natural protein) gave an interval between stoichiometry peaks of 5 and a stoichiometry N of 5.

Source of the values: doi:10.1101/2023.06.15.545204.
